We go through three molecules from patent US20250213686A1, “COMPOSITIONS AND METHODS FOR ENGINEERING TREG CELLS FOR TREATMENT OF DIABETES” (Seattle Children's Hospital (dba Seattle Children's …, priority 2021, published 2025).

What all share (format): cell-based, human
The subject of assay [1] is IGRP 305-324 or IGRP 241-260 peptide presented by HLA-DR4-expressing K562 cells. Briefly: Cytokine production of TCR-transduced CD4+ T cells to cognate peptide. The conditions noted are these: 5 hours stimulation with cognate peptide, day 14. The procedure: (§1) FIGS. 29A-29E show editing of CD4+ T cells to express one of a panel of TCRs, and phenotypic characterization of edited cells.
On day 14, transduced CD4+ T cells were stimulated for 5 hours with cognate IGRP peptide in the presence of transduced K562 cells, and the production of cytokines IFN-γ and TNF-α to evaluate T cell activation (FIG. 29D).

For assay [2] the test system is unchanged. Briefly: Activation marker response of TCR-transduced CD4+ T cells to cognate peptide. The conditions noted are these: for upregulation of functional markers CD154, CD69 and CD137: stimulation with cognate peptide overnight, day 8; for cognate peptide concentration required for maximal surface marker expression: relative to cells expressing T1D5-1. The procedure: as §1
FIGS. 30A-30B show dose response of T1D TCR-expressing CD4+ T cells to stimulation with IGRP 305-324 peptide. Cells were cultured in the presence of HLA-DR4-expressing K562 cells for a 20 hours, and analyzed by flow cytometry. […] Dashed lines=50% maximum response of each cell population (by donor).
CD4+ cells were thawed and stimulated with anti-CD3/CD28 Dynabeads in vitro (day 0). On day 1 post-thawing, cells were inoculated with a lentivirus encoding a T1D2, T1D5-1, or T1D4 TCR (day 1). On day 3 post-thaw, Dynabeads were removed. In parallel, artificial antigen-presenting cells were generated by transducing K562 cells with a lentivirus encoding an HLA-DR4 capable of presenting IGRP 305-324 or IGRP 241-260. On day 7 post-thaw, transduced CD4+ T cells were stimulated by addition of a given amount of cognate IGRP peptide in the presence of transduced K562 cells and culture overnight. On day 8 post-thaw, expression of activation-associated markers CD69, CD137, and CD154 (FIG. 29B).
In another experiment, CD4+ T cells transduced with a lentivirus encoding T1D2 TCR or control TCR (ZNT266) were cultured in a 3:1 ratio with K562 cells pulsed with IGRP 305-324 peptide at a range of concentrations, as described in the preceding paragraph. After 20 hours of co-culture, expression of surface markers CD154 and CD137 were analyzed by flow cytometry, to quantify sensitivity of T1D2 TCR-expressing cells to cognate peptide IGRP 305-324.

Assay [3] concerns cognate peptide (IGRP305-324, IGRP241-260, PPI76-90) and APC. Briefly: Peptide dose response (functional avidity) of TCR-transduced CD4+ T cells. The conditions noted are these: for IGRP305-324 peptide concentration at which proliferation was reached: T1D5-1: similar to about 70% proliferation, T1D2: proliferation only at this concentration. The source says: FIG. 39A depicts a graph showing peptide dose response of T cells expressing T1D2, T1D4, or PPI76 TCR. CD4+ T cells transduced with T1D2, T1D4, or PPI76 TCR were co-cultured with APC in the presence of various concentration of their cognate peptide, IGRP305-324, IGRP241-260, PPI76-90, respectively for 4 days. Representative of three independent experiments.
FIG. 39C depicts a graph showing peptide dose response of T cells expressing T1D2, T1D5-1, or T1D5-2 TCR. CD4+ T cells transduced with T1D2, T1D5-1 or T1D5-2 TCR were co-cultured with APC in the presence of various concentration of their cognate peptide, IGRP305-324 for 4 days. Representative of three independent experiments. For dose response of T cells in A and C, T cells were labeled with CTV before the co-culture and cell proliferation was measured by CTV dilution.
Therefore, these unique features were used as way to begin to explore the impact of TCR affinity on islet-specific EngTregs function. […] We measured proliferation of polyclonal islet-specific Teff in the presence of islet-specific peptides and mDC and EngTregs with T1D2, T1D4 or PPI76. The data were normalized by suppressive activity obtained from suppression assay set up in parallel using CD3/CD28 beads (FIG. 39G). This latter assay provided a baseline control for EngTreg function, as this activation method is not impacted by TCR avidity. […] We then compared T1D2, T1D5-1 and T1D5-2, each of which recognize the same cognate peptide, IGRP305-324, in the context of HLA-DR0401 (Table E6-1) (31). […] Similarly, we measured suppressive capacity of EngTregs expressing T1D2, T1D5-1, or T1D5-2 on proliferation of polyclonal islet Teff in response to islet-specific peptides.

In assay [4] the test system is T1D2 TCR-expressing CD4+ T cells. Put plainly: Alanine-substituted and potential off-target peptide stimulation of T1D2 TCR cells. Here is the method: FIGS. 31A-31D show tolerance of T1D2 to substitutions in IGRP 305-324 peptide. FIGS. 31A and 31B show activation of T1D2 TCR-expressing CD4+ T cells, as measured by CD154 expression intensity (FIG. 31A) or % CD137-expressing cells (FIG. 31B) in the presence of antigen-presenting cells pulsed with one of a panel of alanine-substituted peptides. T cells were cultured for 20 hours in the presence of HLA-DR4-expressing K562 cells that had been pulsed with IGRP 305-324 peptide, or one of a panel of peptides having an alanine substitution at different positions, and analyzed by flow cytometry. FIGS. 31C and 31D show activation of T1D2 TCR-expressing CD4+ T cells, as measured by CD154 expression intensity (FIG. 31C) or % CD137-expressing cells (FIG. 31D) in the presence of antigen-presenting cells pulsed with one of a panel of potential off-target peptides derived from pathogens of human relevance. “Control” indicates CD4+ T cells expressing ZNT266 TCR. […]
After 20 hours of co-culture, expression of surface markers CD154 and CD137 (among CD3+CD4+ cells) were analyzed by flow cytometry, to quantify the potential for off-target activation of cells expressing T1D2 TCR. […]

[5] abbreviates: IGRP 305-324, 20 hours co-culture, 3:1 with K562 cells.

B1: T1D5-1 TCR: TCR specific to IGRP 305-324; TCRα SEQ ID NO: 29, TCRβ SEQ ID NO: 30 (protein)
alpha: MLLITSMLVLWMQLSQVNGQQVMQIPQYQHVQEGEDFTTYCNSSTTLSNIQWYKQRPGGHPVFLIQLVKSGEVKKQKRLTFQFGEAKKNSSLHITATQTTDVGTYFCAGQTGANNLFFGTGTRLTVIPYIQNPDPAVYQLRDSKSSDKSVCLFTDFDSQTNVSQSKDSDVYITDKTVLDMRSMDFKSNSAVAWSNKSDFACANAFNNSIIPEDTFFPSPGKGSFGAFAGCFLASGMARFCPELWSMMSKTPLIGGLG
beta: MGCRLLCCAVLCLLGAVPMETGVTQTPRHLVMGMTNKKSLKCEQHLGHNAMYWYKQSAKKPLELMFVYSLEERVENNSVPSRFSPECPNSSHLFLHLHTLQPEDSALYLCASSQEVGTVPNQPQHFGDGTRLSILEDLNKVFPPEVAVFEPSEAEISHTQKATLVCLATGFFPDHVELSWWVNGKEVHSGVSTDPQPLKEQPALNDSRYCLSSRLRVSATFWQNPRNHFRCQVQFYGLSENDEWTQDRAKPVTQIVSAEAWGRADCGFTSVSYQQGVLSATILYEILLGKATLYAVLVSALVLMAMVKRKDF
With B1, the “IFN-γ and TNF-α production” value in assay [1] was “dose-dependent manner”. Besides, the “upregulation of functional markers CD154, CD69 and CD137” value (“upregulation” for short) in assay [2] was “dose-dependent manner”. The “IGRP305-324 peptide concentration at which proliferation was reached” value in assay [3] was 1.0 µg/mL.

B2: T1D4 TCR: TCR specific to IGRP 241-260; TCRα SEQ ID NO: 19, TCRβ SEQ ID NO: 20 (protein)
alpha: MKSLRVLLVILWLQLSWVWSQKDQVFQPSTVASSEGAVVEIFCNHSVSNAYNFFWYLHFPGCAPRLLVKGSKPSQQGRYNMTYERFSSSLLILQVREADAAVYYCAVEDLNQAGTALIFGKGTTLSVSSNIQNPDPAVYQLRDSKSSDKSVCLFTDFDSQTNVSQSKDSDVYITDKTVLDMRSMDFKSNSAVAWSNKSDFACANAFNNSIIPEDTFFPSPGKGSFGAFAGCFLASGMARFCPELWSMMSKTPLIGGLG
beta: MGSRLLCWVLLCLLGAGPVKAGVTQTPRYLIKTRGQQVTLSCSPISGHRSVSWYQQTPGQGLQFLFEYFSETQRNKGNFPGRFSGRQFSNSRSEMNVSTLELGDSALYLCASSLALGQGNQQFFGPGTRLTVLEDLKNVFPPEVAVFEPSEAEISHTQKATLVCLATGFYPDHVELSWWVNGKEVHSGVSTDPQPLKEQPALNDSRYCLSSRLRVSATFWQNPRNHFRCQVQFYGLSENDEWTQDRAKPVTQIVSAEAWGRADCGFTSESYQQGVLSATILYEILLGKATLYAVLVSALVLMAMVKRKDSRG
As to B2, in assay [1], the “IFN-γ and TNF-α production” value is recorded as “dose-dependent manner”. Further, in assay [2], the “cognate peptide concentration required for maximal surface marker expression” value was “Lower concentrations of cognate peptide were required”; the “upregulation” value is recorded as “dose-dependent manner”. The “cognate peptide concentration giving similar (more than 20%) proliferation” value in assay [3] came to 0.1 µg/mL.

B3: T1D2 TCR: TCR specific to IGRP 305-324, HLA-DR0401 restricted; TCRα SEQ ID NO: 9, TCRβ SEQ ID NO: 10 (protein)
alpha: MAMLLGASVLILWLQPDWVNSQQKNDDQQVKQNSPSLSVQEGRISILNCDYTNSMFDYFLWYKKYPAEGPTFLISISSIKDKNEDGRFTVFLNKSAKHLSLHIVPSQPGDSAVYFCAATRTSGTYKYIFGTGTRLKVLANIQNPDPAVYQLRDSKSSDKSVCLFTDFDSQTNVSQSKDSDVYITDKTVLDMRSMDFKSNSAVAWSNKSDFACANAFNNSIIPEDTFFPSPGKGSFGAFAGCFLASGMARFCPELWSMMSKTPLIGGLG
beta: MSISLLCCAAFPLLWAGPVNAGVTQTPKFRILKIGQSMTLQCTQDMNHNYMYWYRQDPGMGLKLIYYSVGAGITDKGEVPNGYNVSRSTTEDFPLRLELAAPSQTSVYFCASSPWGAGGTDTQYFGPGTRLTVLEDLKNVFPPEVAVFEPSEAEISHTQKATLVCLATGFYPDHVELSWWVNGKEVHSGVSTDPQPLKEQPALNDSRYCLSSRLRVSATFWQNPRNHFRCQVQFYGLSENDEWTQDRAKPVTQIVSAEAWGRADCGFTSESYQQGVLSATILYEILLGKATLYAVLVSALVLMAMVKRKDSRG
In the case of B3, the “IFN-γ and TNF-α production” value in assay [1] is on record as “dose-dependent manner”. In addition, the “recognition of predicted potential off-target peptides derived from human pathogens” value in assay [4] is recorded as “does not recognize any”. Also, in assay [2] (setting [5]), the “EC50 of % CD137-expressing cells” value was 0.03 to 0.1 µg/mL and the “EC50 of CD154 expression” value was 0.1 to 0.3 µg/mL. The “sensitivity to stimulation with cognate peptide IGRP 305-324” value in assay [2] (compared to cells expressing ZNT266 TCR) is recorded as “substantially more sensitive”. Also, in assay [2], the “cognate peptide concentration required for maximal surface marker expression” value is recorded as “Lower concentrations of cognate peptide were required”; the “upregulation” value is “dose-dependent manner”. In assay [3], the “IGRP305-324 peptide concentration at which proliferation was reached” value was determined as 3 µg/mL. The functional avidity entry in assay [3] (comparison of T1D2, T1D4 and PPI76 TCR) is reported as “lowest functional avidity among the three TCRs”. Moreover, the functional avidity result in assay [3] (comparison of T1D2, T1D5-1 and T1D5-2 (same cognate peptide IGRP305-324)) is “lowest functional avidity”.
